{
  "source": "patent US20080207540",
  "about": "“Method For the Identification of Compounds Modulating Reverse Transport of Cholesterol” (Genfit, published 2008)",
  "binders": {"B1": {"name": "LRHRE_ApoA1 mut (dsDNA)", "DNA 1": "GATCCGGGACAGAGCTGATTGTTGAACTA", "DNA 2": "GATCTAGTTCAACAATCAGCTCTGTCCCG"}, "B2": {"name": "LRHRE_ApoA1_h_5 (-191/-171) (dsDNA)", "DNA 1": "GATCCGCAGCCCCCGCAGCTTGCTGTA", "DNA 2": "GATCTACAGCAAGCTGCGGGGGCTGCG"}, "B3": {"name": "LRHRE_ApoA1_h_6 (-178/-145) (dsDNA)", "DNA 1": "GATCCTTGCCCACTCTATTTGCCCAGCCCCAA", "DNA 2": "GATCTTGGGGCTGGGCAAATAGAGTGGGCAAG"}, "B4": {"name": "LRHRE_ApoA1_h_8 (-180/-158) (dsDNA)", "DNA 1": "GATCCAGCTTGCTGTTTGCCCACTCTATA", "DNA 2": "GATCTATAGAGTGGGCAAACAGCAAGCTG"}, "B5": {"name": "hCyp7a mut (dsDNA)", "DNA 1": "GATCTCTTAGTTCAATTCCAGTTAG", "DNA 2": "GATCCTAACTGGAATTGAACTAAGA"}, "B6": {"name": "FXRRE_ApoA1_h_1 (dsDNA)", "DNA 1": "CAGAGCTGATCCTTGAACTCTTAAGTT", "DNA 2": "AACTTAAGAGTTCAAGGATCAGCTCTG"}, "B7": {"name": "FXRRE_ApoA1_h_1_mut (dsDNA)", "DNA 1": "CAGAGCTGATCCTTGAAGTGTTAAGTT", "DNA 2": "AACTTAACACTTCAAGGATCAGCTCTG"}, "B8": {"name": "LRHRE_ApoA1_h_7 (-144/-122) (dsDNA)", "DNA 1": "GATCCGGGACAGAGCTGATCCTTGAACTA", "DNA 2": "GATCTAGTTCAAGGATCAGCTCTGTCCCG"}, "B9": {"name": "hCyp7a wt (dsDNA)", "DNA 1": "GATCTCTTAGTTCAAGGCCAGTTAG", "DNA 2": "GATCCTAACTGGCCTTGAACTAAGA"}},
  "key": {"LRH-1 (hLRH-1, NR5A2) [1]": {"target": "T1, LRH-1 (hLRH-1, NR5A2) (Homo sapiens, UniProt O00482 O00482:1-541)", "T1 sequence (O00482 whole entry, one chain of several)": "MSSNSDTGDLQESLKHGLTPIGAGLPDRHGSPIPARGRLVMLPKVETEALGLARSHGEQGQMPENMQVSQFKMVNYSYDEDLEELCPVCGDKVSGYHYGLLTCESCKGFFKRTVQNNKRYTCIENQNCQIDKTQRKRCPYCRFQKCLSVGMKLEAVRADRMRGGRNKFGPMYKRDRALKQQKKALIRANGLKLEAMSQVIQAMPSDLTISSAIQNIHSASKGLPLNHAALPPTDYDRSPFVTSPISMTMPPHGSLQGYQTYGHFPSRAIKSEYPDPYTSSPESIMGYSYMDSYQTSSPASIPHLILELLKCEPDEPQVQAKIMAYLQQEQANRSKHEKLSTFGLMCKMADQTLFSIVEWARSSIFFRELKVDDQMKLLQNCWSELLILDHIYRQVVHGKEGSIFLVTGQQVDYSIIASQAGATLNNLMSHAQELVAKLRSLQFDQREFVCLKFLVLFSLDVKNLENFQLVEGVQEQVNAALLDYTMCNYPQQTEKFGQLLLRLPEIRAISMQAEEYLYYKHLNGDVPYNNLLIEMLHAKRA", "assay": "EMSA; no complex; no displacement as competitor (FIG. 4A)", "conditions": "tags: none stated; TNT-T7 rabbit reticulocyte lysate, vector pCI-hLRH-1; label: 32P", "protocol": "(§1) 2 μl of rabbit reticulocyte lysate programmed by hLRH-1 were incubated for 15 minutes at room temperature in a final volume of 20 μl of buffer containing 10 mM HEPES, 2.5 mM MgCl₂, 10% glycerol, 2.5 mg/ml BSA, 50 mM NaCl and 0.5 mM DTT with 2.5 μg of polydl-dC and 1 μg of herring sperm DNA in the presence of the labelled double-stranded oligonucleotides (0.5 ng). The complexes were then separated by non-denaturing gel electrophoresis in TBE 0.25X buffer.\n(§2) In contrast, no complex was detected in the presence of labelled double-stranded oligonucleotide corresponding to the mutated response element (hCyp7a mut). […] On the other hand, a specific LRH-1/DNA complex formed with a labelled double-stranded oligonucleotide corresponding to fragment −144/−122 (LRHRE_ApoA1_h_{—}7) of the human apo AI gene promoter. Said fragment straddles regions B and C of the human apo AI promoter and contains, on the antisense strand, the sequence TCAAGGATC similar to the consensus sequence TCAAGGTCA of an LRH-1 response element."}, "FXR [2]": {"target": "T2, FXR (UniProt Q96RI1 Q96RI1:1-486)", "T2 sequence": "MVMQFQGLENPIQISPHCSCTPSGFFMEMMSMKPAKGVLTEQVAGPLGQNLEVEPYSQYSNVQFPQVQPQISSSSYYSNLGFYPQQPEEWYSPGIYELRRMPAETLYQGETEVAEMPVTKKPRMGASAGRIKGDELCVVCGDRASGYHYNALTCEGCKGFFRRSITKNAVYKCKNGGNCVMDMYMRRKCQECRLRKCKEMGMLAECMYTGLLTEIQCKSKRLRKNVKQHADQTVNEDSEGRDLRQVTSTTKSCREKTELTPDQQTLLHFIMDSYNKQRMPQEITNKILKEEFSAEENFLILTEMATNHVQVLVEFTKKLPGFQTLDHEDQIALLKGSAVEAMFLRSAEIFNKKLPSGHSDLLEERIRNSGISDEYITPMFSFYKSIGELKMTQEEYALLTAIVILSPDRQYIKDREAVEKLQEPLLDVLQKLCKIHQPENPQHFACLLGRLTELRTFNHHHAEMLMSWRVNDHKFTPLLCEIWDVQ", "assay": "EMSA; no complex", "conditions": "tags: none stated; TNT-T7 rabbit reticulocyte lysate, vector pCDNA3-FXR; label: 32P"}, "LRH-1 (hLRH-1, NR5A2) [3]": {"target": "T1, LRH-1 (hLRH-1, NR5A2)", "assay": "EMSA; no complex", "conditions": "tags: none stated; TNT-T7 rabbit reticulocyte lysate, vector pCI-hLRH-1; label: 32P", "protocol": "as §1, §2"}, "LRH-1 (hLRH-1, NR5A2) [4]": {"target": "T1, LRH-1 (hLRH-1, NR5A2)", "assay": "EMSA; no complex; also no displacement as competitor (FIG. 4B)", "conditions": "tags: none stated; TNT-T7 rabbit reticulocyte lysate, vector pCI-hLRH-1; label: 32P", "protocol": "as §1, §2"}, "FXR [5]": {"target": "T2, FXR", "assay": "EMSA; specific complex", "conditions": "tags: none stated; TNT-T7 rabbit reticulocyte lysate, vector pCDNA3-FXR; label: 32P"}, "LRH-1 (hLRH-1, NR5A2) [6]": {"target": "T1, LRH-1 (hLRH-1, NR5A2)", "assay": "EMSA; specific complex", "conditions": "tags: none stated; TNT-T7 rabbit reticulocyte lysate, vector pCI-hLRH-1; label: 32P"}, "LRH-1 (hLRH-1, NR5A2) [7]": {"target": "T1, LRH-1 (hLRH-1, NR5A2)", "assay": "EMSA; FXR site mutation does not affect LRH-1 binding", "conditions": "tags: none stated; TNT-T7 rabbit reticulocyte lysate, vector pCI-hLRH-1; label: 32P"}, "FXR [8]": {"target": "T2, FXR", "assay": "EMSA; complex lost", "conditions": "tags: none stated; TNT-T7 rabbit reticulocyte lysate, vector pCDNA3-FXR; label: 32P"}, "LRH-1 (hLRH-1, NR5A2) [9]": {"target": "T1, LRH-1 (hLRH-1, NR5A2)", "assay": "EMSA; specific complex; low affinity site, as competitor only partially displaces Cyp7a probe (FIG. 4A)", "conditions": "tags: none stated; TNT-T7 rabbit reticulocyte lysate, vector pCI-hLRH-1; label: 32P", "protocol": "as §1, §2"}, "LRH-1 (hLRH-1, NR5A2) [10]": {"target": "T1, LRH-1 (hLRH-1, NR5A2)", "assay": "EMSA; 2.5 mM MgCl2, 50 mM NaCl, room temperature; higher affinity than apo AI -144/-122 by competition (Example 4)", "conditions": "tags: none stated; TNT-T7 rabbit reticulocyte lysate, vector pCI-hLRH-1; label: 32P", "protocol": "as §1, §2"}},
  "data": [
    {"binder": "B1", "values": [
      {"measurement": "binding result", "setting": "LRH-1 (hLRH-1, NR5A2) [1]", "value": "no binding"},
      {"measurement": "binding result", "setting": "FXR [2]", "value": "no binding"}
    ]},
    {"binder": "B2", "values": [
      {"measurement": "binding result", "setting": "LRH-1 (hLRH-1, NR5A2) [3]", "value": "no binding"}
    ]},
    {"binder": "B3", "values": [
      {"measurement": "binding result", "setting": "LRH-1 (hLRH-1, NR5A2) [3]", "value": "no binding"}
    ]},
    {"binder": "B4", "values": [
      {"measurement": "binding result", "setting": "LRH-1 (hLRH-1, NR5A2) [3]", "value": "no binding"}
    ]},
    {"binder": "B5", "values": [
      {"measurement": "binding result", "setting": "LRH-1 (hLRH-1, NR5A2) [4]", "value": "no binding"}
    ]},
    {"binder": "B6", "values": [
      {"measurement": "binding result", "setting": "FXR [5]", "value": "binds"},
      {"measurement": "binding result", "setting": "LRH-1 (hLRH-1, NR5A2) [6]", "value": "binds"}
    ]},
    {"binder": "B7", "values": [
      {"measurement": "binding result", "setting": "LRH-1 (hLRH-1, NR5A2) [7]", "value": "binds"},
      {"measurement": "binding result", "setting": "FXR [8]", "value": "no binding"}
    ]},
    {"binder": "B8", "values": [
      {"measurement": "binding result", "setting": "LRH-1 (hLRH-1, NR5A2) [9]", "value": "binds"},
      {"measurement": "binding result", "setting": "FXR [2]", "value": "no binding"}
    ]},
    {"binder": "B9", "values": [
      {"measurement": "binding result", "setting": "LRH-1 (hLRH-1, NR5A2) [10]", "value": "binds"}
    ]}
  ]
}
